By Kd is commonly meant the concentration at which binding is half-saturated. Usually Ki stands for the equilibrium dissociation constant of an inhibitor or competing ligand from its target. Read a high Ki as a looser hold on the target.

Drawing on publication PMC12412656, this text covers Kd and Ki for two molecules.

In experiment [1] the target is DLC1 TBS (465-489C) synthetic peptide, fluorescein-labelled. In words: fluorescence polarisation; R7R8 serially diluted (maximum 160 μM) into 0.5 μM fluorescein-labelled peptide; PBS with 1 mM TCEP and 0.02% Tween-20; room temperature; triplicate; one-site total binding model. On the technique in general: Polarisation of emitted light reports the rotation of a fluorescent probe.

Experiment [2] deals with RIAM TBS1 (4-30C) synthetic peptide, fluorescein-labelled. The experiment is described as above.
In experiment [3] the target is talin 1 R7R8 domain protein (mouse) (mouse). In words: fluorescence polarisation; competition: R7R8 (30 μM) pre-incubated with DLC1 TBS-F (1 μM) 20 min at room temperature, diluted 1:2 into unlabeled peptide at twofold increasing concentrations up to 160 μM; one-site Ki fit.

“talin 1 R7R8 domain protein (mouse) (domain or fragment)”: the Kd worked out at 4.92 µM in experiment [1] and 9.21 µM in experiment [2].

In experiment [3], SEDIDQMFSTLLGEMDLLTQSLGVDTC [RIAM TBS1 (4-30C) synthetic peptide, unlabeled] yielded a Ki of 90 µM.
